{"source": "patent US11078259B2", "about": "“Methods and compositions for promoting thermogenic potential” (Joslin Diabetes Center, Inc., priority 2015, dated 2021)", "molecules": {"B1": {"name": "BMP7: Recombinant human BMP7, an inducer of brown adipogenesis (protein, UniProt P18075 293-431, looked up)", "Bone morphogenetic protein 7": "STGSKQRSQNRSKTPKNQEALRMANVAENSSSDQRQACKKHELYVSFRDLGWQDWIIAPEGYAAYYCEGECAFPLNSYMNATNHAIVQTLVHFINPETVPKPCCAPTQLNAISVLYFDDSSNVILKKYRNMVVRACGCH"}}, "key": {"[1]": {"system": "hWAT-SVF and hBAT-SVF progenitors", "experiment": "BMP pre-treatment of progenitors, Q-RT-PCR for UCP1 and PPARγ in mature adipocytes", "format": "cell-based, human"}, "[2]": {"system": "hBAT progenitors with hUCP1-promoter-Luc/GFP", "experiment": "Transplantation of UCP1 reporter progenitors into nude mice, in vivo bioluminescent imaging", "set-up": "species or system BALB/c athymic nude mice", "conditions": "mice implanted with hBAT progenitors; 3.3 nM BMP7 pretreatment of progenitors 6 days", "description": "FIG. 7A depicts a transgenic UCP1 reporter system for measuring UCP1 gene expression. A bicistronic luciferase and green fluorescent protein (GFP) reporter was coupled to a 4.1 kb human UCP1 promoter fragment. FIG. 7B depicts the organization of plasmid pLV.ExBi.P/Puro-hUCP1promoter-Luc(firefly)-T2A-hrGFP, which contains the UCP1 reporter system described in FIG. 7A. FIG. 7C depicts time-lapse microscopy of differentiating hBAT-SVF cells containing the UCP1 reporter system. UCP1 expression was monitored by visualization of GFP. FIG. 7D depicts that in hBAT-SVF and hWAT-SVF cells stably expressing the reporter construct, luciferase activity (Right) was strongly correlated with endogenous UCP1 gene expression (Left) during the course of differentiation (see FIG. 2A and Methods). For determination of UCP1 mRNA levels, total RNAs were isolated on day 0, 2, 3, 5, 9, 12, 15 and 18; for luciferase activity assay, cell lysates were collected on day 0, 6, 9 and 18. Data are presented as fold changes compared to hWAT-SVF on day 0 (mean±s.e.m., n=3). […]\nHuman immortalized white and brown fat progenitors with hUCP1-promoter-Luc/GFP were grown in the presence and absence of 3.3 nM BMP7 for 6 days to reach confluence. […] The luminescence intensity in regions of interest from each image was quantified to examine the viability of the implanted cells. […]"}}, "note": "“Also recorded” adds a separate entry of the source."}
{"molecule": "B1", "values": [{"measurement": "UCP1 expression in mature adipocytes", "setting": "[1]; hWAT-SVF from both subjects and hBAT-SVF from Subject 2, 3.3 nM BMP7 pre-exposure 6 days", "result": "increased"}, {"measurement": "PPARγ expression", "setting": "[1]; mature brown adipocytes from Subject 2 only, BMP7 pretreatment", "result": "augmented"}, {"measurement": "luciferase activity (UCP1 reporter) in vivo", "setting": "[2]", "result": "further induced; also recorded: increased further"}]}
